Results published in article doi:10.1101/2025.06.05.658000.

How the values were obtained:
[1] = target: HLA-DR (DRA1*01:01 / DRB1*04:05), soluble knob-into-hole Fc heterodimer (human); assay: ELISA
[2] = target: HLA-DR (DRA1*01:01 / DRB1*11:04), soluble knob-into-hole Fc heterodimer (human); assay: ELISA

Substance	fold decline of binding affinity compared to RBD WT [1]	fold decline of binding affinity compared to RBD WT [2]
SARS-CoV-2 RBD peptide RBD447-461 of the BA.2.86 variant (from UniProt P0DTC2 447-461)	> 16 fold	> 16 fold
SARS-CoV-2 RBD peptide RBD447-461 of the Omicron BA.5 variant (from UniProt P0DTC2 447-461)	> 16 fold	> 16 fold
